Data from patent US20160178645A1 (University of California, published 2016).

Target: T1, human Aβ1-42 oligomers (human, UniProt P05067 672-713, fluorescently labeled in the TIRF imaging (HiLyte Fluor 647-labeled peptide bought, paragraph 100; 'AlexFlour647-conjugated' in paragraph 102); position not stated)
T1 construct: domain: Aβ1-42; Preformed oligomers; only the Aβ1-42 peptide was used; also called labeled Aβ1-42 oligomers; HiLyte Fluor 647-labeled Aβ1-42
Assay: TIRF single molecule imaging with photobleaching of aggregates formed in Httl4A2.6 lysates (data not shown)
Protocol: Httl4A2.6 cells were treated with 0.5 μM of Aβ1-40, Aβ1-42, alpha-synuclein, and A53T alpha-synuclein, Alzheimer's disease (AD), and Parkinson's disease—associated oligomers, in the same manner as polyQ seeds. No significant enhancement of intracellular mHttex 1-GFP aggregates was detected (data not shown). Confirming results were obtained from filter retardation-GFP immunoblotting following cell-free aggregation assays; no notable changes in mHttex1 aggregation were found in the cell lysates with up to 5 μM of Aβ1-40, Aβ1-42, alpha-synuclein, and A53T alpha-synuclein oligomeric seeds (data not shown). These observations were further corroborated by the total internal reflection microscopy (TIRF) single molecule imaging results based on photobleaching of mHttex1-GFP aggregates formed in Httl4A2.6 lysates seeded with either AlexFlour647-conjugated polyQ or Aβ1-42 oligomers (data not shown). In contrast to the polyQ oligomers, which were mostly linked with mHttex1-GFP aggregates from photobleaching imaging, few labeled Aβ1-42 oligomers overlapped with GFP fluorescence from the mHttex1-GFP aggregates.

T1 sequence (P05067 672-713 limits assumed): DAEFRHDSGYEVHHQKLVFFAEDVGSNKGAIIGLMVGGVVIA

- binding result: no binding
B1: mHttex1-GFP (truncated expanded repeat Httn exon 1 protein fused at the C-terminus to EGFP) (other)
chain: MATLEKLMKAFESLKSFQQQQQQQQQQQQQQQQQQQQQQQQQQQQQQQQQQQQQQQQQQQQQQQQQQQQQQQQQQQQQQQQQQQQQQQQQQQQQQQQQQQQQQQQQQQQQQQQQQQQQQ
notes: Expressed in Httl4A2.6 inducible PC12 cells after Ponasterone A induction; tested inside cells or in cell lysate supernatants; No linker between Httn part and EGFP is described; also called N17-103Q-EGFP; GFP-tagged mHtt exon 1 protein; not shown: enhanced green fluorescent protein (EGFP), fused at the C-terminus; EGFP is an eng
